# Test results reported in US20020155995A1 (published 2002).
# B1: human haptoglobin Hp(2-2), non-complexed (other, UniProt P00738 19-406, looked up)
# chain: VDSGNDVTDIADDGCPKPPEIAHGYVEHSVRYQCKNYYKLRTEGDGVYTLNDKKQWINKAVGDKLPECEADDGCPKPPEIAHGYVEHSVRYQCKNYYKLRTEGDGVYTLNNEKQWINKAVGDKLPECEAVCGKPKNPANPVQRILGGHLDAKGSFPWQAKMVSHHNLTTGATLINEQWLLTTAKNLFLNHSENATAKDIAPTLTLYVGKKQLVEIEKVVLHPNYSQVDIGLIKLKQKVSVNERVMPICLPSKDYAEVGRVGYVSGWGRNANFKFTDHLKYVMLPVADQDQCIRHYEGSTVPEKKTPKSPVGVQPILNEHTFCAGMSKYQEDTCYGDAGSAFAVHDLEEDTWYATGILSFDKSCAVAEYGVYVKVTSIQDWVQKTIAEN
# notes: mature; From Sigma; mixture of multimers; also called Hp(2-2) multimers
# Molecular target: T1, human CD163, ligand-affinity purified from Triton X-100 solubilised human spleen, placenta and liver membranes (human, UniProt Q86VB7 42-1156)
# T1 construct: mature; Natural receptor purified from tissue membranes on Hp-Hb Sepharose; immobilised on BIAcore CM5 chips or in microtiter wells; also called HbSR; Hp-Hb receptor
# T1 sequence (Q86VB7 42-1156): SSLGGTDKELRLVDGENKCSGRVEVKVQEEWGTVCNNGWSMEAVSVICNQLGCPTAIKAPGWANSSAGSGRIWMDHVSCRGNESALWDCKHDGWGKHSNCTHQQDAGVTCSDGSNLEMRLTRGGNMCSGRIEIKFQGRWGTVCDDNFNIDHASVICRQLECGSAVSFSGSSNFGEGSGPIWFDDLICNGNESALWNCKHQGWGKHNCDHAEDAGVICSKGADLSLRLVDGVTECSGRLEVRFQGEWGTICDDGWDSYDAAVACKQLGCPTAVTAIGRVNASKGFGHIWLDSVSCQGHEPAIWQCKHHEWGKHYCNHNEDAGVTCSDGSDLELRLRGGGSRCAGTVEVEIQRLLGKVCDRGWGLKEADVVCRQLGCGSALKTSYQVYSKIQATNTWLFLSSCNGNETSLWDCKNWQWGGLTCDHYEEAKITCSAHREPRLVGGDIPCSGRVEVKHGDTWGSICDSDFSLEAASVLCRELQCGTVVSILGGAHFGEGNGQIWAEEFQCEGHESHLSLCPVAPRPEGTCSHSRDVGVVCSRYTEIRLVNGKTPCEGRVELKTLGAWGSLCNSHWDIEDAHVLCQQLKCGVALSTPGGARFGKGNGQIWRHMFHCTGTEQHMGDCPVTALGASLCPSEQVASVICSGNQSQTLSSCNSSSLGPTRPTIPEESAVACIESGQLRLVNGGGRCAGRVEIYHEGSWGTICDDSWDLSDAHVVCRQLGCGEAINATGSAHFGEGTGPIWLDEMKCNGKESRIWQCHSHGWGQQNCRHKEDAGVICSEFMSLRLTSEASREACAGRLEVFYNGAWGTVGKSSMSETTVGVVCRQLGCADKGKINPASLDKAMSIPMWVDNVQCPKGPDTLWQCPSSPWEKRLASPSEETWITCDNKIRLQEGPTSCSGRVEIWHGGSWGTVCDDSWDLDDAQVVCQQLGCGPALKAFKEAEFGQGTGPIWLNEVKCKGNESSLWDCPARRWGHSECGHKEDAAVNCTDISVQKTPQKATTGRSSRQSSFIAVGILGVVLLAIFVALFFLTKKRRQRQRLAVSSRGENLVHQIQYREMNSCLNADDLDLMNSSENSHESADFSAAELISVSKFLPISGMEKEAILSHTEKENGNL
# Experiment: SPR, CD163 immobilised on CM5 chip
# Description: Purified CD163 was immobilised at the BIAcore sensor CM5 chip (BIAcore AB) at a concentration of up to 50 μg/ml in 10 mM sodium acetate, pH 4.0, and the remaining binding sites were blocked with 1 M ethanolamine pH 8.5. The surface plasmon resonance signal generated from immobilised CD163 corresponded to 55-66 fmol receptor/mm². The sample and flow buffer was 10 mM Hepes, 150 mM NaCl, 0.5 mM CaCl₂, pH 7.4. The sensor chips were regenerated with 1.6 M glycine-HCl, pH 3.
binder,measurement,value
B1,binding result,no binding (tested: 50 µg/ml Hp(2-2))
